We go through three molecules from US20100022401A1, “Avidin-like proteins from symbiotic bacteria” (LICENTIA OY, priority 2004, published 2010).

The nature of series [1]: [3H]biotin dissociation rate assay. Type of series: binding. Conditions: radio-biotin, different temperatures. As to the method: (§1) FIG. 2 Biotin dissociation analysis. (A) The [3H]biotin dissociation rate constant was measured at different temperatures. The values for streptavidin are from Klumb et al. (Klumb et al., 1998). The scale of the Y axis is logarithmic. (B) Release of fluorescent biotin conjugate from avidins was studied as a function of time in the presence of excess D-biotin at 50° C.
(§2) Ligand binding properties were studied both by [3H]biotin assay and fluorescent biotin conjugate assay. The dissociation rate constant of [3H]biotin (Amersham) from the bradavidins and avidin was measured at various temperatures as described in detail previously (Klumb et al., 1998). According to the results, (Table I, FIG. 2) the faster dissociation rate measured from bradavidin indicates weaker affinity toward the radiobiotin than those of avidin and streptavidin. The dissociation rate of a fluorescent biotin conjugate (ArcDia BF560™-biotin) was measured as previously described (Hytönen et al., 2004a) at 50° C.

Series [2] in a line: Fluorescent biotin conjugate dissociation assay. Type of series: binding. The following applies: for Fluorescent biotin kdiss: ArcDia BF560-biotin; for Fluorescent biotin kdiss / Release 1 h of fluorescent biotin conjugate: 50° C.; for Fluorescent biotin conjugate dissociation (in words): fluorescent biotin conjugate as ligand; for Release 1 h of fluorescent biotin conjugate: one hour, presence of excess free biotin. As to the method: as §1, §2
(§3) The apparent molecular mass is indicated and followed by the theoretical mass in brackets. Transition temperature (Tr) indicates the temperature in which half of the protein is tetrameric and half monomeric in the absence (first value) and presence (second value) of biotin. In addition to the measured dissociation rate constant (kdiss), the release percentage of the fluorescent biotin conjugate in one hour in the presence of excess free biotin is indicated. Calculated isoelectrical point (pI) and the number of cysteine residues per monomer are also indicated.

A short description of series [3]: SDS-PAGE based thermal stability (heat treatment). Type of series: physicochemical.
Excerpt: The thermal stability characteristics of the proteins were studied by a SDS-PAGE based method as previously described in detail by (Bayer et al., 1996).
as §3

The conditions of series [4]: values from Bayer et al., 1996, cited from earlier work.

Read-outs that look alike come from different tables or passages of the source. Marks after values point to notes of the source that are not given here.

B1: Bradavidin: full length wild-type (138 amino acid residues, SEQ ID NO:1) avidin-like biotin-binding protein from Bradyrhizobium japonicum (protein, listed as Bradyrhizobium japonicum)
chain: QSVNWTWTNQYGSTLAITSFNSNTGAITGTYTNNAANSCDEGKPQGVTGWLAYGNTGTAISFSVNFLGCGSTTVWTGQLNNATGFQGLWYLSLAEAVAWNGISAGADTFTFSSGDKALLTKSGVDLKAGSEKLSNTKK
Regarding B1, the “[3H]biotin dissociation rate (in words)” value in series [1] is recorded as “fastest dissociation rate”. In addition, in series [2], the Fluorescent biotin kdiss came out at 1.5e-05 s⁻¹; the “Fluorescent biotin conjugate dissociation (in words)” value is “very slow and small release”; the “Release 1 h of fluorescent biotin conjugate” value (from here on “Release 1 h”) is reported as 4.7%. The “Heat treatment SDS-PAGE Tr (transition temperature, half tetrameric and half monomeric)” value in series [3] (absence of biotin) is 65^ ° C. For the same molecule, in series [3] (presence of biotin), the “Heat treatment SDS-PAGE Tr (transition temperature, half tetrameric and half monomeric)” value came out at 85 °C.

B2: Bradavidin-core: C-terminally truncated core form (118 amino acid residues, SEQ ID NO:2) of biotin-binding protein from Bradyrhizobium japonicum, produced in E. coli (protein, listed as Bradyrhizobium japonicum)
chain: QSVNWTWTNQYGSTLAITSFNSNTGAITGTYTNNAANSCDEGKPQGVTGWLAYGNTGTAISFSVNFLGCGSTTVWTGQLNNATGFQGLWYLSLAEAVAWNGISAGADTFTFSSGDKAL
In turn, B2 returned a Fluorescent biotin kdiss in series [2] of 1.2e-05 s⁻¹. Besides, the “Release 1 h” value in series [2] is 4.4%. Besides, the figures for the “Heat treatment SDS-PAGE Tr (transition temperature, half tetrameric and half monomeric)” value in series [3] (absence of biotin) and in series [3] (presence of biotin) were 70^ ° C and 85 °C, respectively.

B3: Avidin: chicken avidin (SEQ ID NO:6), glycosylated biotin-binding protein (protein)
chain: NSARSTPGCPPAAEMVHATSPLLLLLLLSLALVAPGLSARKCSLTGKWTNDLGSNMTIGAVNSRGEFTGTYITAVTATSNEIKESPLHGTQNTINKRTQPTFGFTVNWKFSESTTVFTGQCFIDRNGKEVLKTMWLLRS
Take B3: the “[3H]biotin dissociation rate (in words)” value in series [1] was “clearly the slowest dissociation”. In series [2], the Fluorescent biotin kdiss amounted to 0.00027 s⁻¹, the “Fluorescent biotin conjugate dissociation (in words)” value was “clearly the fastest in dissociation” and the “Release 1 h” value amounted to 71.5%. Further, in series [4] (absence of biotin), the “Heat treatment SDS-PAGE Tr (transition temperature)” value is given as 58^a ° C. Further, the “Heat treatment SDS-PAGE Tr (transition temperature)” value in series [4] (presence of biotin) is 100^a ° C.
